{"source": "patent US20200407440A1", "about": "“AMATOXIN ANTIBODY-DRUG CONJUGATES AND USES THEREOF” (Magenta Therapeutics, Inc., priority 2019, published 2020)", "key": {"[1]": {"biological_target": "human CD2 (human) (UniProt P06729)", "sequence (P06729 25-351 limits assumed)": "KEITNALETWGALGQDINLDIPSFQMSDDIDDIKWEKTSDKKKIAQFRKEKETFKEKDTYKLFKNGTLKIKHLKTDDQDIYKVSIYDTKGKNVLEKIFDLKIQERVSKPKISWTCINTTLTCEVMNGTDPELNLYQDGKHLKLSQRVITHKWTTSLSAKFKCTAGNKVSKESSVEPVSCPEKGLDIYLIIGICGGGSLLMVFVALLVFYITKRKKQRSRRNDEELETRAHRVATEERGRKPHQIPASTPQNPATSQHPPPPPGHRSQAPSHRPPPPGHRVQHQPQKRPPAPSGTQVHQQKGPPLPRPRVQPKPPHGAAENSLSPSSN", "experiment": "flow cytometry of primary human T cells at day 5; competition with the staining anti-CD2 clone RPA-2.10 [left panel]"}, "[2]": {"biological_target": "human CD2 (human) (UniProt P06729)", "experiment": "cell-based or functional assay"}}}
{"substance": "CD2 RPA2.10 D265C/H435A ADC A (antibody)", "values": [{"measurement": "IC50 (read off the curve)", "setting": "[1]", "value": 0.1, "unit": "nM"}, {"measurement": "% Efficacy, primary human T cell killing assay", "setting": "[2]", "value": 85.7, "unit": "%"}, {"measurement": "IC50 (pM), primary human T cell killing assay (5 days, flow cytometry)", "setting": "[2]", "value": 54, "unit": "pM"}]}
{"substance": "CD2 RPA naked (antibody)", "values": [{"measurement": "IC50 (read off the curve)", "setting": "[1]", "value": 0.08, "unit": "nM"}]}
